# Test results published in patent publication US11299526B2, “p53-BAD fusion proteins” (University of Utah Research Foundation, priority 2018, dated 2022).
# Entries after “also recorded” stand apart in the source; their conditions may differ.
# What was measured:
# [1] = Preliminary toxicity study, IP injected polymer and polymer-Ad; settings: mouse, in vivo
# [2] = tested on: Kuramochi cells; assay: Paclitaxel cell viability assay; format: cell-based; settings: Homo sapiens, 48 hr
# Procedure: Paclitaxel powder (LC Laboratories; Wobum, Mass.) was dissolved in DMSO to 10 mg/mL to make a stock solution. To determine the paclitaxel IC50 in Kuramochi cells, 8×10^3 Kuramochi cells were seeded in 96-well plates 24 hr prior to drug treatment. Paclitaxel in complete growth medium was added at increasing concentrations, and the cells were incubated for 48 hr. The Aqueous One Cell Proliferation Assay (Promega) was used to assess cell viability. For gene transfection and paclitaxel combination treatment, the cells were transfected first. 4 hr after transfection, paclitaxel was added at 100 nM or 200 nM, and the cells were incubated for 48 hr as previously optimized by our lab.
# After confirming the high apoptotic potential of p53-Bad/112,136, we wanted to test the possibility of combining p53-Bad/112,136 gene therapy with paclitaxel, a standard-of-care for HGSC. Based on a genomic and gene expression profile study with 47 ovarian cancer cell lines, Kuramochi was identified to be the best model for high grade serous ovarian cancer, with the highest genetic similarity to ovarian tumors. The IC50 of paclitaxel was determined using a cell viability […] assay. Kuramochi cells were incubated with different paclitaxel concentrations ranging from 0 nM to 1000 nM for 48 hr. The IC50 value was determined to be approximately 100 nM. […]
# [3] = tested on: OVCAR-3 cells; settings: cited from earlier work
# [4] = tested on: SKOV-3 cells; assay: Mitochondrial localization of EGFP-tagged constructs, fluorescence microscopy with PCC analysis; format: cell-based, human; settings: mitochondria stained with MitoTracker Red, CMV promoter
# Procedure: (§1) Images of p53-BH3 (EGFP tagged on N-terminus) can be acquired 18 h post-transfection with an Olympus IX71F fluorescence microscope with a F-View Monochrome CCD camera and analyzed with ImageJ using Pearson's correlation coefficient (PCC) and post Costes' algorithm. PCC≥0.6 are considered to be colocalized. […] Apoptosis assay: 7-AAD assay (measuring late-stage apoptosis) can be performed as done before as an initial screen. As before, cells can be stained with […] working solution of 7-aminoactinomycin D (7-AAD) 24 hr post-transfection. Cells can be analyzed and gated for EGFP with the same fluorescence intensity to ensure equal detection of proteins
# 24 hr post-transfection, cells were stained in PBS solution containing 200 nM MitoTracker Red CM-H2Xros (Thermo Scientific), 1:100 dilution of ProLong Live Antifade Reagent (Thermo Scientific), and 2 μM Hoechst stain. The cells were incubated for 20 minutes protected from light. Images were acquired using a Nikon AIR fluorescence confocal microscope with 60× Plan Apo Oil immersion objective (core facility, University of Utah). The images were visualized using NIS element software with built in EGFP, MitoTracker Red, and DAPI filters. Co-localization analyses were performed using the JACoP plugin for ImageJ software. […] The experiments were performed three times with 10 cells analyzed each experiment for a total of 30 cells per gene constructs.
# [5] = tested on: p53-Luc Cis-Reporter; assay: Nuclear transcriptional activity p53 luciferase reporter gene assay; format: cell-based; settings: SKOV-3, OVCAR-3, ID8 and Kuramochi cells, 24 hr post-transfection
# Procedure: All constructs (3.5 μg of DNA) were co-transfected with 3.5 μg of p53-Luc Cis-reporter plasmid encoding a firefly luciferase gene (Agilent Technologies; Santa Clara, Calif.) and 0.35 μg of pRL-SV40 plasmid encoding a Renilla luciferase gene (Promega; Madison, Wis.). Renilla luciferase was used to normalize for transfection efficiency in respective cell lines. The Dual-Glo Luciferase Assay System (Promega) was used to determine the firefly luciferase activity and Renilla luciferase activity per manufacturer's recommendation 24 hr post-transfection as before. The luminescence signal was detected using the Infinite M1000 microplate reader (Tecan; Männedorf, Switzerland). The Dual-Glo luciferase assay was performed in triplicate.
# [6] = tested on: SKOV-3 cells; assay: 7-AAD late apoptosis/cell death assay; format: cell-based, human; settings: SKOV-3, 24 hr post-transfection
# Procedure: as §1
# (§2) 7-AAD assay was performed as before (14, 15). Briefly, the cells were collected 24 hr post-transfection. The cell pellets were resuspended in 300 μL of 1.25 μg/mL 7-AAD in PBS. The cells were incubated on ice for 20 minutes, and analyzed using FACS-Canto-II similar to the TMRE assay. The cells were gated for EGFP positive (excitation at 480 nm and emission at 535 nm) and 7-AAD positive (excitation at 496 nm and emission at 785 nm). The constructs were assayed in triplicates. The lowest and highest values were set at 0% and 100%, respectively (relative 7-AAD) as before (14).
# [7] = tested on: ID8 cells; assay: 7-AAD late apoptosis/cell death assay; format: cell-based, mouse; settings: ID8, 24 hr post-transfection
# Procedure: as §1, §2
# [8] = tested on: SKOV-3, OVCAR-3, ID8 and Kuramochi cells; assay: 7-AAD late apoptosis/cell death assay, statements for all four ovarian cancer cell lines; format: cell-based, human, mouse; settings: 24 hr post-transfection
# Procedure: as §2
# [9] = tested on: OVCAR-3 cells; assay: TMRE mitochondrial depolarization (MOMP) assay; format: cell-based, human; settings: OVCAR-3, 20 hr post-transfection
# Text: […] Flow cytometry can be used to analyze […] cells using the PE-A channel (excitation at 561 nm with emission at 585/15). Loss in TMRE intensity represents mitochondrial depolarization, which correlates to mitochondrial outer membrane permeabilization (MOMP). […] Bad alone constructs may have some activity, but may be weaker or slower acting than p53-Bad constructs. This underscores the importance of using apoptotic, cell death, proliferation, and oncogenic assays to paint a complete picture of construct potency/efficacy.
# (§3) […] Cells were incubated for 30 minutes at 37° C. then analyzed using flow cytometry (FACS-Canto-II with FACS Diva software, core facility, University of Utah) as described before. EGFP was excited at 488 nm with emission filter 530/35, and TMRE was excited at 561 nm with emission filter 585/15. The loss in TMRE intensity indicates mitochondrial depolarization, which correlates with an increase in the permeabilization of the mitochondrial outer membrane (MOMP). Each construct was transfected independently and tested in triplicates (n=3). The lowest MOMP value was set as 0%, and the highest MOMP value as 100% as before.
# [10] = tested on: SKOV-3, OVCAR-3, ID8 and Kuramochi cells; assay: TMRE mitochondrial depolarization (MOMP) assay, statements for the four ovarian cancer cell lines; format: cell-based, human, mouse; settings: four cell lines of FIG. 17, 20 hr post-transfection
# Procedure: as §3
# [11] = tested on: Kuramochi cells; assay: 7-AAD assay of constructs combined with paclitaxel; format: cell-based, human; settings: paclitaxel 100 nM or 200 nM added 4 hr after transfection, 48 hr
# Procedure: The IC50 of paclitaxel was determined using a cell viability MTT assay. Kuramochi cells were incubated with different paclitaxel concentrations ranging from 0 nM to 1000 nM for 48 hr. […] A control group without paclitaxel (0 nM) was also included. The cells were incubated for 48 hr before the 7-AAD assay.
Molecule,subcellular localization of EGFP-tagged construct [4],nuclear transcriptional activity (firefly luciferase) [5],apoptosis / cell death (7-AAD) [6],apoptosis / cell death (7-AAD) [7],apoptosis / cell death (7-AAD) [8],mitochondrial depolarization / % MOMP induction (TMRE) [9],mitochondrial depolarization / % MOMP induction (TMRE) [10],further results
poly (cystaminebisacryl-amide-diaminohexane)-polyethylene glycol linked to RGD (Arg-Gly-Asp) [polymer alone],,,,,,,,"immunogenicity at injection site [1]: no swelling, inflammation, or redness at injection site"
CC(=O)O[C@H]1C(=O)[C@@]2(C)[C@H]([C@H](OC(=O)c3ccccc3)[C@]3(O)C[C@H](OC(=O)[C@H](O)[C@@H](NC(=O)c4ccccc4)c4ccccc4)C(C)=C1C3(C)C)[C@]1(OC(C)=O)CO[C@@H]1C[C@@H]2O [paclitaxel],,,,,,,,IC50 [2]: ~0.1 µM
CN(C)CC[C@H](CSc1ccccc1)Nc1ccc(S(=O)(=O)NC(=O)c2ccc(N3CCN(Cc4ccccc4-c4ccc(Cl)cc4)CC3)cc2)cc1[N+](=O)[O-] [ABT-737],,,,,,,,IC50 [3]: 10 ± 4 µM
"Bad/112,136: Bad with S112A and S136A mutations (SEQ ID NO:2), no p53, negative control (protein, mutated BAD peptide) MFQIPEFEPSEQEDSSSAERGLGPSPAGDGPSGSGKHHRQAPGLLWDASHQQEQPTSSSHHGGAGAVEIRSRHSAYPAGTEDDEGMGEEPSPFRGRSRAAPPNLWAAQRYGRELRRMSDEFVDSFKKGLPRPKSAGTATQMRQSSSWTRVFQSWWDRNLGRGSSAPSQ",mitochondrial localization; also recorded: effectively localize to the mitochondria,do not activate firefly luciferase,inactive,inactive,comparable to EGFP (negative control) except in OVCAR-3 cells; also recorded: apoptotic activity diminishes,some activity,significant level of % MOMP,effect of deleting the BH3 domain of Bad on activity (TMRE) ([9]; FIG. 20): significantly reduces the activity; effect of added paclitaxel on the activity of the construct (7-AAD) [11]: does not seem to increase
"Bad: EGFP-tagged human Bad without p53 (SEQ ID NO:1), negative control (protein, UniProt Q92934 1-168, looked up, EGFP tag) Bcl2-associated agonist of …: MFQIPEFEPSEQEDSSSAERGLGPSPAGDGPSGSGKHHRQAPGLLWDASHQQEQPTSSSHHGGAGAVEIRSRHSSYPAGTEDDEGMGEEPSPFRGRSRSAPPNLWAAQRYGRELRRMSDEFVDSFKKGLPRPKSAGTATQMRQSSSWTRVFQSWWDRNLGRGSSAPSQ",found in the cytoplasm,do not activate firefly luciferase,inactive,inactive,comparable to EGFP (negative control) except in OVCAR-3 cells; also recorded: apoptotic activity diminishes,some activity,significant level of % MOMP,
